The values that follow come from US20220296727A1, “Immunoconjugate” (DendroCyte BioTech Pty Ltd, priority 2019, published 2022).

One assay deals with THP-1. Conditions: comparator agents; cited from earlier work.
In a further assay the test system is U937. The following applies: comparator agents; cited from earlier work.
A further assay concerns HL-60. The following applies: comparator agents; cited from earlier work.
For a further assay, the target named is human CD300f (human, UniProt Q8TDQ1 20-290). The assay can be described thus: cell-based or functional assay.
The test system of the next assay is AML. The assay can be described thus: NOS/SCID mouse model of AML. Format: in vivo. The following applies: unconjugated antibody alone.
Another assay concerns HL-60 cells. The assay can be described thus: Internalisation assay by flow cytometry. Format: cell-based. How it is done: DCR-2 (IgG1), and as an isotype control, the anti-tetanus toxoid mAb, CMRF-81 (IgG1) which were both produced, purified and directly conjugated to phycoerythrin (PE) in house (Abadir et al. Mol Oncol. 2019; 13(10):2107-2120). Cells were incubated with DCR-2-PE or CMRF-81-PE (10 μg/ml) on ice for 20 min, washed to remove unbound mAb then incubated at 37° C./5% CO2 to allow internalisation for the indicated times.
After incubation, residual mAb remaining on the cell surface was detected with a secondary goat anti-mouse (GAM) IgG-AF488 antibody. Cells were fixed in 1% paraformaldehyde/PBS for flow cytometry analysis. The surface and total relative Mean Fluorescent Index (MFI) was calculated as the (MFI of binding antibody at time point−MFI of isotype control at time point) at 37° C./(MFI of binding antibody at time point−MFI of isotype control at time point) at 0° C. The percent internalised was assessed by 100−(relative MFI surface staining/relative MFI total staining). In immunofluorescent microscopy experiments cells were stained with DCR-2 then air-dried and fixed with 4% paraformaldehyde or incubated for 37° C. for 30 minutes then fixed. Rehydration was performed using 1% BSA/PBS prior to staining with GAM IgG-AF488 antibody and 18 μM DAPI (ThermoFisher).

The test system of another assay is dendritic cells. The experiment in a line: Activation marker expression on dendritic cells after LPS. Format: cell-based, human. Conditions: HLA-DR, CD11c, CD80, CD83; 200 pmol. On the procedure:
The activity of DCR-2PBD on the upregulation of activation markers on DC was measured by incubating whole PBMC with DCR-2PBD or no antibody for […] before washing, followed by 12 hours of LPS stimulation. Control DC were not exposed to DCR-2PBD or LPS. Myeloid DC were gated out by excluding dead cells, Lin^+(CD3, CD20, CD19, CD56, CD14), then gating on HLA-DR^+ and CD11c^+ cells. The activation markers CD80 and CD83 were assessed via flow cytometry. The changes on activation were determined by comparing activated DC incubated with or without DCR-2PBD compared to inactivated DC.
PBMC were incubated in complete RPMI media with or without DCR-2-PBD (200 pmol). After 12 hours, washed cells were incubated for a further 12 hours with or without LPS then phenotyped for the expression of activation markers on DC populations. MoDC were derived from CD14+ monocytes as described previously (Fromm et al. J Leukoc Biol. 2020; 107(2):323-339). DCR-2-PBD or isotype-PBD (200 pmol) were added for 72 hours prior to enumeration of live cells by flow cytometry.

Sequence of human CD300f (Q8TDQ1 20-290): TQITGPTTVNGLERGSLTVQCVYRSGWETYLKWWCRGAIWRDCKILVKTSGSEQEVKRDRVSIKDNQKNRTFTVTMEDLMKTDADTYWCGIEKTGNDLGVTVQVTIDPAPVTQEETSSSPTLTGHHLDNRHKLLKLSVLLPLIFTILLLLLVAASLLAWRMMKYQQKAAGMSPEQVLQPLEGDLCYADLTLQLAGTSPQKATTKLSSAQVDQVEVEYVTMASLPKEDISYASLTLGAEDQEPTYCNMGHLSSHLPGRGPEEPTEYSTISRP

For the molecule “Gemtuzumab-Ozogamicin: approved AML therapeutic which targets CD33”, the IC50 (in general, the concentration at which inhibition is half-maximal) is 0.04 nM in the assay with THP-1, 0.127 nM in the assay on U937 and 0.0133 nM with HL-60.

With `CS(=O)(=O)OCCCCOS(C)(=O)=O` [Busulfan], the 50% inhibitory concentration (IC50) in the assay with HL-60 was 354000 nM.

On to `COc1cccc2c1C(=O)c1c(O)c3c(c(O)c1C2=O)C[C@@](O)(C(=O)CO)C[C@@H]3O[C@H]1C[C@H](N)[C@H](O)[C@H](C)O1` [Doxorubicin], for which the IC50 with HL-60 is 345000 nM.

B1: DCR-2-pyrrolobenzodiazepine (PBD) immunoconjugate (antibody, V domains shown)
VH: MESGGGLVQPGGPLKLSCAASGFGFSGSWMSWVRQAPGKGLEWIGQINPDSSTINYTPSLKDKFIISRDNAKNTLYLQINKVRSEDTALYYCARRGFFEGYSAWFAYW
VL: ILMTQTPKFLLVSAGDRVTITCKASQSVSNDVAWYQQKPGQSPSLLIYYASNRNTGVPDRFTGSGYETDFTFTISTVQAEDLAVYFCQQDYTSPWTFGGG
modifications: PBD dimer linked through the Cathepsin B-cleavable linker MA-PEG4-VA-PBD to native cysteines (reduced interchain disulfides); drug to antibody molar ratio 3.3; positions not given
With B1, in the assay with human CD300f, the “IC50 (pM), cytotoxicity on HL-60 cells” value came to 5.45 pM; the “IC50 (pM), cytotoxicity on THP-1 cells” value came to 29.9 pM; the “IC50 (pM), cytotoxicity on U937 cells” value came out at 6.74 pM.

B2: DCR-2: murine IgG1 kappa monoclonal antibody binding the extracellular domain of CD300f; hybridoma CBA20160029 (antibody, V domains shown)
VH: B1 VH
VL: B1 VL
Turning to B2, in the assay on AML, the “survival and disease burden” value is on record as “does not prolong survival or reduce disease burden”. The values for the Internalisation result with HL-60 cells (30 minutes) and in the assay with HL-60 cells (180 minutes) were “significant” and “greater than 50%”, respectively. The “up-regulation of activation markers on dendritic cells after LPS” value with dendritic cells was “does not prevent upregulation of activation markers CD80 and CD83”.
